From paper PMC3565030

Molecular target: T1, Eco1 phosphopeptide “94-98-99” (phosphates at Thr94, Ser98 and Ser99), FITC-conjugated (budding yeast)
T1 chain: GTITPLNSSPLKK
Test: fluorescence polarisation

Kd: 10.3 µM
B1: Cdc4–Skp1 complex (His6-Cdc4-LP6DelA GST-Skp1), P07834 1-779; P52286 1-194 (complex)
chain 1: GTLIKDNLKRDLITSLPFEISLKIFNYLQFEDIINSLGVSQNWNKIIRKSTSLWKKLLISENFVSPKGFNSLNLKLSQKYPKLSQQDRLRLSFLENIFILKNWYNPKFVPQRTTLRGHMTSVITCLQFEDNYVITGADDKMIRVYDSINKKFLLQLSGHDGGVWALKYAHGGILVSGSTDRTVRVWDIKKGCCTHVFEGHNSTVRCLDIVEYKNIKYIVTGSRDNTLHVWKLPKESSVPDHGEEHDYPLVFHTPEENPYFVGVLRGHMASVRTVSGHGNIVVSGSYDNTLIVWDVAQMKCLYILSGHTDRIYSTIYDHERKRCISASMDTTIRIWDLENGELMYTLQGHTALVGLLRLSDKFLVSAAADGSIRGWDANDYSRKFSYHHTNLSAITTFYVSDNILVSGSENQFNIYNLRSGKLVHANILKDADQIWSVNFKGKTLVAAVEKDGQSFLEILDFS
chain 2: MVTSNVVLVSGEGERFTVDKKIAERSLLLKNYLNDMGDDDDEDDDEIVMPVPNVRSSVLQKVIEWAEHHRDSNFPDEDDDDSRKSAPVDSWDREFLKVDQEMLYEIILAANYLNIKPLLDAGCKVVAEMIRGRSPEEIRRTFNIVNDFTPEEEAAIRRENEWAEDR
modifications: not checked
